B1: TPR t1 (parent)
chain: GACCAAUCUGCCCUCAGAGCUCGAGAACAUCUUCGGAUGCAGAGGAGGCAGGCUUCGGUGGCGCGAUAGCGCCAACGUCCUCAACCUCCAAUGCAUCCCACCACAUGAUGAUGCCUGAAGAGCCUUGGUUUUUUG

Variants of: B1
Experiment: polymerase ribozyme fitness, log enrichment relative to wild type (log ratio); higher = more active; in vitro selection for triplet polymerase activity
How it was run: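 Frozen incubation at −7 °C formed the core of a single, triplicate in vitro selection round applied to PCR-built, transcribed mutant libraries of each subunit of a heterodimeric triplet polymerase ribozyme. Extended constructs were gel-excised, captured with streptavidin beads and amplified by RT-PCR, and input and output libraries were Illumina-sequenced with a filter of ≥10 input reads and ≥1 read per output. Fitness is the logarithm of genotype enrichment relative to wild-type enrichment, with inverse-variance-weighted replicate averaging, and the logarithm is base 2.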

Which “polymerase ribozyme fitness (log ratio)” value does the source give for G44A U112A here?
The value was 0.126.

With U92A U133A as the variant, how does the “polymerase ribozyme fitness (log ratio)” value read?
The value was -2.62.

For G19C C86A, which “polymerase ribozyme fitness (log ratio)” value is on record?
The value was -2.92.

Which “polymerase ribozyme fitness (log ratio)” value does the source give for C8G C11G C20U G63C here?
Its value is -1.38.

For C85A U106A, which “polymerase ribozyme fitness (log ratio)” value is on record?
The value was -2.53.

With G45U C53A C64A U112A G117A as the variant, how does the “polymerase ribozyme fitness (log ratio)” value read?
The value was -6.13.

With A50C G61C as the variant, how does the “polymerase ribozyme fitness (log ratio)” value read?
The value was -3.35.

With C11G A37U G60U G77C as the variant, how does the “polymerase ribozyme fitness (log ratio)” value read?
Its value is -1.22.

For G19A C89A, which “polymerase ribozyme fitness (log ratio)” value is on record?
Its value is -2.63.

Which “polymerase ribozyme fitness (log ratio)” value does the source give for C4A G63A A83U A118G here?
The value was -3.12.

With G60U A103U as the variant, how does the “polymerase ribozyme fitness (log ratio)” value read?
The value was -4.99.

With C13G A84C C102U as the variant, how does the “polymerase ribozyme fitness (log ratio)” value read?
Its value is -2.71.

For C8U U14A, which “polymerase ribozyme fitness (log ratio)” value is on record?
Its value is -0.398.

Which “polymerase ribozyme fitness (log ratio)” value does the source give for U9C C73U C85U G120C here?
The value was 1.44.

With A41C C82U C94G C97U as the variant, how does the “polymerase ribozyme fitness (log ratio)” value read?
The value was -6.09.

Which “polymerase ribozyme fitness (log ratio)” value does the source give for A24G G57A G77U here?
Its value is -2.15.

For C53U C101G U130A, which “polymerase ribozyme fitness (log ratio)” value is on record?
Its value is -2.65.

For C12U C34A G63A, which “polymerase ribozyme fitness (log ratio)” value is on record?
Its value is -5.16.

With C12G G120U G127U as the variant, how does the “polymerase ribozyme fitness (log ratio)” value read?
Its value is 1.47.

With C8G G63C U92A as the variant, how does the “polymerase ribozyme fitness (log ratio)” value read?
The value was -3.28.

Which “polymerase ribozyme fitness (log ratio)” value does the source give for A26C C56G here?
Its value is -5.43.

With C34A G60C as the variant, how does the “polymerase ribozyme fitness (log ratio)” value read?
The value was -3.4.

With C11G G42U as the variant, how does the “polymerase ribozyme fitness (log ratio)” value read?
The value was -0.866.

Which “polymerase ribozyme fitness (log ratio)” value does the source give for G44U C62G G117A here?
Its value is -4.71.

Which “polymerase ribozyme fitness (log ratio)” value does the source give for C3G U14A C20A G42U G61U G117A U131G G135C here?
The value was -3.96.

Which “polymerase ribozyme fitness (log ratio)” value does the source give for G42A G44U C99A A100U U109A here?
Its value is -5.27.

With C12A C15A C73U C82U as the variant, how does the “polymerase ribozyme fitness (log ratio)” value read?
Its value is -3.66.

With U7G U38C G45U C97U U133G as the variant, how does the “polymerase ribozyme fitness (log ratio)” value read?
The value was -2.84.

For G57U C62G, which “polymerase ribozyme fitness (log ratio)” value is on record?
Its value is -1.62.

With G71U G107A as the variant, how does the “polymerase ribozyme fitness (log ratio)” value read?
Its value is -4.04.

Which “polymerase ribozyme fitness (log ratio)” value does the source give for C13A G71U A119G here?
The value was -1.25.

With C15U C72A C85G C102A as the variant, how does the “polymerase ribozyme fitness (log ratio)” value read?
The value was -3.1.

For C11A C72U U78C C82G C101A A121C, which “polymerase ribozyme fitness (log ratio)” value is on record?
Its value is -0.882.

For C3U C4A C53G C62U C88U A90C C123A U130C, which “polymerase ribozyme fitness (log ratio)” value is on record?
The value was -0.74.

With G71U C123G as the variant, how does the “polymerase ribozyme fitness (log ratio)” value read?
The value was 0.824.

With G42A G61U A83U as the variant, how does the “polymerase ribozyme fitness (log ratio)” value read?
Its value is -2.11.

Which “polymerase ribozyme fitness (log ratio)” value does the source give for C62G G113U here?
The value was -4.24.

Which “polymerase ribozyme fitness (log ratio)” value does the source give for A74G C101A here?
Its value is -0.767.

For C11U C53U C73U C85A A121G C123G U126G U129C U130A, which “polymerase ribozyme fitness (log ratio)” value is on record?
The value was -3.11.

Which “polymerase ribozyme fitness (log ratio)” value does the source give for A41C G93U here?
The value was -1.92.

With G48A U81A C98U as the variant, how does the “polymerase ribozyme fitness (log ratio)” value read?
The value was -2.94.

For G60A G107A, which “polymerase ribozyme fitness (log ratio)” value is on record?
Its value is -2.9.

Which “polymerase ribozyme fitness (log ratio)” value does the source give for C11A C12G A27U G63U G77A here?
Its value is -5.74.

Which “polymerase ribozyme fitness (log ratio)” value does the source give for G58C C97U U116G G135C here?
The value was -3.26.

With G25A C80A U92A U112A as the variant, how does the “polymerase ribozyme fitness (log ratio)” value read?
Its value is -6.66.

Which “polymerase ribozyme fitness (log ratio)” value does the source give for G44A G60U A108U C115A A121U here?
Its value is -4.86.

For C73G U112A G117U, which “polymerase ribozyme fitness (log ratio)” value is on record?
Its value is -2.94.

For C88G A95C, which “polymerase ribozyme fitness (log ratio)” value is on record?
Its value is -4.58.

Which “polymerase ribozyme fitness (log ratio)” value does the source give for C4A U32C G69U G113A here?
The value was -2.74.

Which “polymerase ribozyme fitness (log ratio)” value does the source give for C56U C70G C115A G122A here?
The value was -4.59.

Which “polymerase ribozyme fitness (log ratio)” value does the source give for A29G A50C here?
The value was -1.66.

Which “polymerase ribozyme fitness (log ratio)” value does the source give for A46C C72U U78C G93U G122A U133G here?
The value was -3.05.

With C49U C98A as the variant, how does the “polymerase ribozyme fitness (log ratio)” value read?
Its value is -5.99.

For G10A C22G G47A G60A, which “polymerase ribozyme fitness (log ratio)” value is on record?
The value was -3.93.

For U7G C40G C56U G69U, which “polymerase ribozyme fitness (log ratio)” value is on record?
The value was -2.3.

For C8U G23A U54C C73A, which “polymerase ribozyme fitness (log ratio)” value is on record?
The value was -6.59.

Which “polymerase ribozyme fitness (log ratio)” value does the source give for G61C C80A G107U C114U G127C here?
The value was -5.81.

With C4A U78A C124G as the variant, how does the “polymerase ribozyme fitness (log ratio)” value read?
Its value is 1.08.

With G47U C97A as the variant, how does the “polymerase ribozyme fitness (log ratio)” value read?
Its value is -5.54.

For C80A C94A U112C, which “polymerase ribozyme fitness (log ratio)” value is on record?
The value was -2.27.

For A6G C102A C124A U130A, which “polymerase ribozyme fitness (log ratio)” value is on record?
Its value is 0.13.

For G17A G23A C64A C102G U109A, which “polymerase ribozyme fitness (log ratio)” value is on record?
Its value is -6.59.

For C34U U59A C94U, which “polymerase ribozyme fitness (log ratio)” value is on record?
Its value is -5.57.

For A18G U21C G110A, which “polymerase ribozyme fitness (log ratio)” value is on record?
Its value is -2.38.

With C28G U38C G77C A84U U92C G113U U129G as the variant, how does the “polymerase ribozyme fitness (log ratio)” value read?
The value was -5.83.

Which “polymerase ribozyme fitness (log ratio)” value does the source give for A5G A91U here?
The value was -1.78.

Which “polymerase ribozyme fitness (log ratio)” value does the source give for U9A A16G A18U A43G C70A C72U here?
Its value is -3.21.

With C8G U132A as the variant, how does the “polymerase ribozyme fitness (log ratio)” value read?
Its value is 0.53.

With A5U C70G U106A C114U as the variant, how does the “polymerase ribozyme fitness (log ratio)” value read?
Its value is -5.21.

Which “polymerase ribozyme fitness (log ratio)” value does the source give for C72G U78A G127U U129C here?
The value was -2.25.

Which “polymerase ribozyme fitness (log ratio)” value does the source give for A41C G63U G93C G117A U132A here?
Its value is -4.71.

With G35C U59C C124A as the variant, how does the “polymerase ribozyme fitness (log ratio)” value read?
Its value is -3.15.

Which “polymerase ribozyme fitness (log ratio)” value does the source give for G17U U55C here?
The value was -2.57.

Which “polymerase ribozyme fitness (log ratio)” value does the source give for C12A C114A here?
Its value is -1.3.

For A5U U87G U130C, which “polymerase ribozyme fitness (log ratio)” value is on record?
Its value is 0.627.

For C70U C88G, which “polymerase ribozyme fitness (log ratio)” value is on record?
The value was -1.63.

Which “polymerase ribozyme fitness (log ratio)” value does the source give for C20U A43G G69C C88U U130A here?
Its value is -5.74.

For C11G G44C C86G U126A, which “polymerase ribozyme fitness (log ratio)” value is on record?
The value was -2.2.

Which “polymerase ribozyme fitness (log ratio)” value does the source give for C22G A37U C104U U132A here?
The value was -3.57.

For C15A C88A, which “polymerase ribozyme fitness (log ratio)” value is on record?
The value was -1.56.

With U7A A37U C70G U78A as the variant, how does the “polymerase ribozyme fitness (log ratio)” value read?
The value was -3.04.

Which “polymerase ribozyme fitness (log ratio)” value does the source give for C62U U87G U109A here?
The value was -5.76.

Which “polymerase ribozyme fitness (log ratio)” value does the source give for C13G C82A G128C here?
Its value is -3.69.

With A27G G45U G71U U96G G120U as the variant, how does the “polymerase ribozyme fitness (log ratio)” value read?
The value was -4.73.

From the RNAGym collection of RNA variant scans (doi:10.1073/pnas.2313332121)
